{"source": "patent US7897569B2", "about": "“Use of HMGB fragments as anti-inflammatory agents” (The Feinstein Institute for Medical Research, priority 2001, dated 2011)", "molecules": {"B1": {"name": "B box: Human HMGB1 mutant containing only the B box, SEQ ID NO:20 (protein)", "chain": "FKDPNAPKRLPSAFFLFCSEYRPKIKGEHPGLSIGDVAKKLGEMWNNTAADDKQPYEKKAAKLKEKYEKDIAAY"}, "B2": {"name": "A box: Human HMGB1 mutant containing only the A box, SEQ ID NO:21 (A box SEQ ID NO:22) (protein)", "chain": "MGKGDPKKPTGKMSSYAFFVQTCREEHKKKHPDASVNFSEFSKKCSERWKTMSAKEKGKFEDMAKADKARYEREMKTYIPPKGET"}}, "key": {"[1]": {"tested_on": "D-galactosamine-sensitized Balb/c mice", "assay": "Histology and serum cytokines in D-galactosamine-sensitized Balb/c mice", "type": "in vivo", "description": "To further assess the lethality of the HMGB1 B box protein in vivo the HMGB1 B box was again administered to D-galactosamine-sensitized Balb/c mice. Mice (3 per group) received D-gal (20 mg/mouse) plus B box or vector (1 mg/mouse) intraperitoneally for 7 hours and were then sacrificed by decapitation. Blood was collected, and organs (liver, heart, kidney and lung) were harvested and fixed in 10% formaldehyde. Tissue sections were prepared with hematoxylin and eosin staining for histological evaluation (Criterion Inc., Vancouver, Canada). The results of these studies are shown in FIGS. 7A-7J, which are scanned images of hematoxylin and eosin stained kidney sections (FIG. 7A), myocardium sections (FIG. 7C), lung sections (FIG. 7E), and liver sections (FIGS. 7G and 7I) obtained from an untreated mouse and kidney sections (FIG. 7B), myocardium sections (FIG. 7D), lung sections (FIG. 7F), and liver sections (FIGS. 7H and 7J) obtained from mice treated with the HMGB1 B box. […] In FIG. 7J, hepatocyte dropouts are seen surrounded by accumulated polymorphonuclear leukocytes. The arrows in FIG. 7J point to the sites of polymorphonuclear accumulation (dotted) or apoptotic hepatocytes (solid)."}, "[2]": {"tested_on": "RAW 264.7 cells", "assay": "TNF mRNA expression in RAW 264.7 cells (RNase protection assay)", "type": "cell-based, murine", "details": "10 μg/ml", "description": "The kinetics of B box-induced TNF release was also examined. TNF release and TNF mRNA expression was measured in RAW 264.7 cells induced by B box polypeptide or GST tag polypeptide only used as a control (vector) (10 μg/ml) for 0 to 48 hours. Supernatants were analyzed for TNF protein levels by an L929 cytotoxicity assay (N=3-5) as described herein. For mRNA measurement, cells were plated in 100 mm plate and treated in Opti-MEM I medium containing B box polypeptide or the vector alone for 0, 4, 8, or 24 hours, as indicated in FIG. 2D. The vector only sample was assayed at the 4 hour time point. Cells were scraped off the plate and total RNA was isolated by RNAzol B method in accordance with the manufacturer's instructions (Tel-Test “B”, Inc., Friendswood, Tex.). TNF (287 bp) was measured by RNase protection assay (Ambion, Austin, Tex.). Equal loading and the integrity of RNA was verified by ethidium bromide staining of the RNA sample on agarose-formaldehyde gel. […] TNF mRNA expression was maximal at 4 hours and decreased at 8 and 24 hours. […] A similar study was carried out measuring TNF protein released from RAW 264.7 cells 0, 4, 8, 24, 32 or 48 hours after administration of B box or vector only (GST tag), using the L929 cytotoxicity assay described herein. […] Data are representative of three separate experiments."}, "[3]": {"tested_on": "HMGB1", "assay": "A box inhibition of HMGB1 induced TNF release from RAW 264.7 cells (L929 assay)", "type": "cell-based", "details": "HMGB1 1 μg/ml, A box 0-25 μg/ml, 16 hours", "description": "Weak agonists are by definition antagonists. […] This study was carried out as follows. Sub-confluent RAW 264.7 cells in 24-well dishes were treated with HMGB1 (1 μg/ml) and 0, 5, 10, or 25 μg/ml of A box for 16 hours in Opti-MEM I medium in the presence of polymyxin B (100 units/ml). The TNF-stimulating activity (assayed using the L929 cytotoxicity assay described herein) in the sample receiving no A box was expressed as 100%, and the inhibition by A box was expressed as percent of HMGB1 alone. […] Data in FIG. 4A are presented as mean±SD (n=2-3 independent experiments)."}, "[4]": {"tested_on": "Balb/c mice subjected to CLP", "assay": "Cecal ligation and puncture (CLP) sepsis survival", "type": "in vivo", "description": "Cecal ligation and puncture (CLP) was performed as described previously (Fink and Heard, J. Surg. Res. 49:186-196, 1990; Wichmann et al., Crit. Care Med. 26:2078-2086, 1998; and Remick et al., Shock 4:89-95, 1995). Briefly, Balb/c mice were anesthetized with 75 mg/kg ketamine (Fort Dodge, Fort Dodge, Iowa) and 20 mg/kg of xylazine (Bohringer Ingelheim, St. Joseph, Mo.) intramuscularly. A midline incision was performed, and the cecum was isolated. A 6-0 prolene suture ligature was placed at a level 5.0 mm from the cecal tip away from the ileocecal valve.\nThe ligated cecal stump was then punctured once with a 22-gauge needle, without direct extrusion of stool. The cecum was then placed back into its normal intra-abdominal position. The abdomen was then closed with a running suture of 6-0 prolene in two layers, peritoneum and fascia separately to prevent leakage of fluid. All animals were resuscitated with a normal saline solution administered sub-cutaneously at 20 ml/kg of body weight. Each mouse received a subcutaneous injection of imipenem (0.5 mg/mouse) (Primaxin, Merck & Co., Inc., West Point, Pa.) 30 minutes after the surgery. Animals were then allowed to recuperate. Mortality was recorded for up to 1 week after the procedure; survivors were followed for 2 weeks to ensure no late mortalities had occurred.\nTo determine whether the HMGB1 A box can inhibit the lethality of HMGB1 during sepsis, mice were subjected to cecal perforation and treated by administration of A box beginning 24 hours after the onset of sepsis. CLP was performed on male Balb/c mice as described herein. Animals were randomly grouped, with 15-25 mice per group. The HMGB1 A box (60 or 600 μg/mouse each time) or vector (GST tag, 600 μg/mouse) alone was administered intraperitoneally twice daily for 3 days beginning 24 hours after CLP. Survival was monitored twice daily for up to 2 weeks to ensure no late death occurred. […]\nPassive immunization of critically ill septic mice with anti-HMGB1 antibodies was also assessed. […] Survival was monitored for 2 weeks. […]"}, "[5]": {"details": "1 mg/mouse ip plus D-gal, 7 hours"}}, "data": [{"molecule": "B1", "values": [{"measurement": "histology of heart", "setting": "[1]; [5]", "value": "some ischemic changes and loss of cross striation in myocardial fibers"}, {"measurement": "histology of kidneys and lungs", "setting": "[1]; [5]", "value": "no abnormality"}, {"measurement": "histology of liver", "setting": "[1]; [5]", "value": "active hepatitis"}, {"measurement": "serum levels of IL-1β", "setting": "[1]; B box in vivo, Balb/c mice", "value": "15+3 pg/ml"}, {"measurement": "serum levels of IL-6", "setting": "[1]; B box in vivo, Balb/c mice", "value": "315+93 pg/ml"}, {"measurement": "time of maximal TNF mRNA expression", "setting": "[2]", "value": 4, "unit": "h"}, {"measurement": "TNF mRNA expression", "setting": "[2]; 0-24 hours (vector at 4 hours)", "value": "increased significantly"}]}, {"molecule": "B2", "values": [{"measurement": "apparent EC50 for inhibition of HMGB1 induced TNF release", "setting": "[3]", "value": "approximately 7.5 μg/ml"}, {"measurement": "clinical condition and outcome", "setting": "[4]; 60 μg A box, CLP", "value": "most died"}, {"measurement": "clinical condition", "setting": "[4]; 600 μg/mouse A box, CLP", "value": "significantly more alert, active, and to resume feeding behavior"}, {"measurement": "survival", "setting": "[4]; ip twice daily for 3 days beginning 24 hours after CLP", "value": 68, "unit": "%"}]}]}
